Patent US20120308566A1 (published 2012)
Changes are numbered by the printed parent chain.

How the values were obtained:
[1] = molecular target: Human IL-17RA full-length expressed on the surface of cells (human, UniProt Q96F46 33-866); assay: cell-based or functional assay
chimera L = molecular target: T1, chimera L; assay: Bio-Plex titration on His-captured chimera; bold cell = binding criterion not met
T1 construct: also called Construct L; B+F
Experimental: Twelve bead codes of pentaHis-coated beads (Qiagen, Valencia, Calif.; see www1.qiagen.com) were used to capture histidine-tagged protein. The 12 bead codes allowed the multiplexing of 11 chimeric and the wild type human IL-17RA.
To prepare the beads, 100 ul of wild-type IL-17RA supernatant from transient expression culture and 100 ul of 2.5 ug/ml chimeric protein were bound to penta-His-coated beads overnight at 4° C. or 2 hours at room temperature with vigorous shaking. The beads were washed as per the manufacturer's protocol and the 12 bead set was pooled and aliquoted into 2 or 3 columns of a 96-well filter plate (Millipore, Billerica, Mass., product #MSBVN1250) for duplicate or triplicate assay points, respectively. 100 ul anti-IL-17RA antibodies in 4-fold dilutions were added to the wells, incubated for 1 hour at room temperature, and washed. […] Beads were resuspended in 1% BSA, shaken for 3 minutes, and read on the Bio-Plex workstation. Antibody binding to IL-17RA chimeric protein was compared to antibody binding to the human IL-17RA wild-type from the same pool. A titration of antibody over approximately a 5 log scale was performed. Median Fluorescence Intensity (MFI) of chimeric proteins was graphed as a percent of maximum wild-type human IL-17RA signal.

huIL-17RA-FLAG-polyHis = molecular target: T2, huIL-17RA-FLAG-polyHis (human, UniProt Q96F46 33-320); assay: multiplexed Luminex binning
T2 construct: also called wild-type IL-17RA-FLAG-polyHis; HuIL-17RA-Flag-pHis
Experimental: Cross-competition studies were performed to determine IL-17RA binding characteristics of exemplary IL-17RA antibodies. […] The method employed the Bio-Plex Workstation and software (BioRad, Hercules, Calif.), as well as reagents from Luminex® Corp. (Austin, Tex.). The manufacturers' basic protocols were followed except where noted below (see www.bio-rad.com and www.luminexcorp.com for details). […] The mouse-anti-human IgG coating was evaluated and the beads quantified by FACS. Each bead code was separately incubated with 10 ul of anti-IL-17RA antibody for 1 hour at room temperature and then washed. The beads were pooled and then dispensed to a 96-well filter plate (Millipore, Billerica, Mass., product #MSBVN1250). […] The PE-tagged monovalent antibody will detect the presence of the second mAb added to the well, but not the first mAb captured by the monovalent mouse-anti-human IgG antibody. Beads were resuspended in 120 ul PBSAT and at least 100 events/bead code were collected on the Bio-Plex workstation as per the manufacturer's recommended protocol.

B1: AMH17/AML17 (antibody, V domains shown)
VH: QVQLVQSGAEVKKPGAAVKVSCKATGYTLTSYGISWVRQAPGQGLEWMGWISAYSGNTKYAQKLQGRVTMTTDTSTSTAYMELRSLRSDDTAVYYCARKQLVFDYWGQGTLVTVSS
VL: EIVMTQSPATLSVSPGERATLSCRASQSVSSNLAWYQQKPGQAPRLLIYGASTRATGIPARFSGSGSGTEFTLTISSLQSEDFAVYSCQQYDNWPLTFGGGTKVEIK
IL-17A/HFF bioassay IC50; 21. Subclone of (AMH17/AML17) [1]: 2.5 nM
IL-17A/HFF bioassay IC50; 22. Subclone of (AMH17/AML17) [1]: 5.3 nM
IL-17A/HFF bioassay IC50; 23. Subclone of (AMH17/AML17) [1]: 0.57 nM

B2: AMH12/AML12 (antibody, IgG2, V domains shown)
VH: B1 VH with A17S, T25S, A53T, S55K, K59N
VL: EIVMTQSPATLSVSPGERATLSCRASQSISSSLAWYQQKPGQAPRLLIYGASTRATGIPARFSGSGSGTEFTLTISSLQSENFAVYYCQQYDNWPLTFGGGTKVEIK
IL-17A/HFF bioassay IC50; 17. Subclone of (AMH12/AML12) [1]: 3.5 nM
IL-17A/HFF bioassay IC50; 18. Subclone of (AMH12/AML12) [1]: 3.7 nM
IL-17A/HFF bioassay IC50; 20. Subclone of (AMH12/AML12) [1]: 5.5 nM

B3: AMH16/AML16 (antibody, IgG2, V domains shown)
VH: B1 VH with A17S, T25S, L29F, S55N, A79V
VL: B2 VL with S31T, A51T, N82D, Y87F, N93I
IL-17A/HFF bioassay IC50; 24. Subclone of (AMH16/AML16) [1]: 1.6 nM
IL-17A/HFF bioassay IC50; 25. Subclone of (AMH16/AML16) [1]: 2.3 nM
IL-17A/HFF bioassay IC50; 26. Subclone of (AMH16/AML16) [1]: 1.4 nM

B4: AMH19/AML19 (antibody, IgG2, V domains shown)
VH: B1 VH with A17S, T25S, L64F, K99R, V102A, F103L
VL: B2 VL with S32N, G64D, S65N, N82D, Y87F, N93T
IL-17A/HFF bioassay IC50; 10. Subclone of (AMH19/AML19) [1]: 0.22 nM
IL-17A/HFF bioassay IC50; 11. Subclone of (AMH19/AML19) [1]: 1.1 nM
IL-17A/HFF bioassay IC50; 12. Subclone of (AMH19/AML19) [1]: 0.5 nM

B5: AMH18/AML18 (antibody, IgG2, V domains shown)
VH: QVQLVQSGAEVKKPGASVKVSCKASGYSFTDYYMHWVRQAPGQGLEWMGWMHPNSGGTDLAQRFQGRVTMTRDTSISTAYMELSRLRSDDTAVYYCARGGYCSTLSCSFYWYFDLWGRGTLVTVSS
VL: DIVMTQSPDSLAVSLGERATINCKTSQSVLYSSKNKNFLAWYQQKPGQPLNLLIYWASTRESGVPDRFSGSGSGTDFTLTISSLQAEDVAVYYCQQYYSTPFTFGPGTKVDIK
notes: human monoclonal antibody from IgG2 XenoMouse mice; also called AM-18
IL-17A/HFF bioassay IC50; 14. Subclone of (AMH18/AML18) [1]: 0.44 nM
IL-17A/HFF bioassay IC50; 15. Subclone of (AMH18/AML18) [1]: 0.4 nM
IL-17A/HFF bioassay IC50; 16. Subclone of (AMH18/AML18) [1]: 0.17 nM
EC50 entry; zero = binding ablated (chimera L): 0 nM

B6: AMH13/AML13 (antibody, IgG2, V domains shown)
VH: QVQLVESGGGVVQPGRSLRLSCAASGFTFSSYGMQWVRQAPGKGLEWVAVIWYDGNKKYYADSVKGRFTISRDNSKNTLYLQMNSLRAEDTAVYYCARGRVRDYYYGMDVWGQGTTVTVSS
VL: DIVMTQTPLSLSVTPGQPASIACKSSQSLLHSDGKTYLYWYLQKPGQPPQLLIYEVSTRFSGVPDRFSGSGSGTDFTLKISRVEAEDVGVFYCMQSIQLPLTFGGGTKVEIK
IL-17A/HFF bioassay IC50; 13. Subclone of (AMH13/AML13) [1]: > 10 nM

B7: AMH21/AML21 (antibody, IgG2, V domains shown)
VH: EVQLVESGGGSVQPGGSLRLSCAASGFTFSSYSMNWVRQAPGKGLEWVSIISSRSSIIHYADSVKGRFTISRDNAKNSLYLQMNSLRDEDTAVYYCARPKVGGGMDVWGQGTTVTVSS
VL: DIQMTQSPSSLSASVGDRVTITCRASQGISNYLAWYQQKPGKFPELLIYAASTLQSGVPSRFSGSGSGTDFTLTISSLQPEDVATYYCQKYNRAPFTFGPGTKVDIK
IL-17A/HFF bioassay IC50; 4. Subclone of (AMH21/AML21) [1]: 2.3 nM
IL-17A/HFF bioassay IC50; 5. Subclone of (AMH21/AML21) [1]: 3.1 nM
IL-17A/HFF bioassay IC50; 6. Subclone of (AMH21/AML21) [1]: 3.3 nM

B8: AMH20/AML20 (antibody, IgG2, V domains shown)
VH: B7 VH with S11L, I50F, S53A, I57T, H59Y
VL: B7 VL
IL-17A/HFF bioassay IC50; 7. Subclone of (AMH20/AML20) [1]: 8.1 nM
IL-17A/HFF bioassay IC50; 8. Subclone of (AMH20/AML20) [1]: 6.6 nM
IL-17A/HFF bioassay IC50; 9. Subclone of (AMH20/AML20) [1]: 6.7 nM

B9: AMH10/AML10 (antibody, IgG2, V domains shown)
VH: QVQLQESGPGLVKPSQTLSLTCTVSGGSISSGGYYWSWIRQHPGKGLEWIGYIYFSGSAYYNPSLKSRVAISVDTSKNQFSLKLSSVTAADTAVYYCAREYYDSSGYPDAFDIWGQGTMVTVSS
VL: DIQMTQSPSSVSASVGDRVTITCRASQGIRSWLAWYQQKPGKAPKLLIFAASSLQSGVPSRFSGSGSGTEFTLTISSLQPEDFATYYCQQANNFPRTFGQGTKVEIK
notes: human monoclonal antibody from IgG2 XenoMouse mice; also called AM-10
binding result (huIL-17RA-FLAG-polyHis): binds

B10: AMH7/AML7 (antibody, IgG2, V domains shown)
VH: QVQLVQSGAEVKKPGASVKVSCKASGYTLTRYGISWVRQAPGQGLEWMGWISAYNGNTNYAQKLQGRVTMTTDTSTSTAYMELRSLRSDDTAVYYCARRDYDILTGYYNGFDPWGQGTLVTVSS
VL: DIQMTQSPSSLSASVGDRVTITCRASQGIRNDLGWYQQKPGKAPKRLIYAASSLQSGVPSRFSGSGSGTEFTLTISSLQPEDFATYYCLQHKSYPLTFGGGTKVEIK
notes: human monoclonal antibody from IgG2 XenoMouse mice; also called AM-7
binding result (huIL-17RA-FLAG-polyHis): binds

B11: AMH6/AML6 (antibody, IgG2, V domains shown)
VH: B10 VH
VL: B10 VL
notes: human monoclonal antibody from IgG2 XenoMouse mice; also called AM-6
binding result (huIL-17RA-FLAG-polyHis): binds

B12: AMH8/AML8 (antibody, IgG2, V domains shown)
VH: B10 VH with Y27N, L29F, R31G, K63N
VL: B10 VL
notes: human monoclonal antibody from IgG2 XenoMouse mice; also called AM-8
binding result (huIL-17RA-FLAG-polyHis): binds

B13: AMH4/AML4 (antibody, IgG2, V domains shown)
VH: QVQLVESGGGVVQPGRSLRLSCAASGINFSSYGMHWVRQAPGKGLEWVAVIWYDGSNKHYADSVKGRFTISRDNSKNTLYLQMNSLRAEDTAVYYCARDTGVYWGQGTLVTVSS
VL: not shown
notes: human monoclonal antibody from IgG2 XenoMouse mice; also called AM-4
binding result (huIL-17RA-FLAG-polyHis): binds
